Target: T1, human B7H6 (human, UniProt Q68D85 25-454)
T1 construct: in the immunoblot and immunoprecipitation experiments it stood in cell lysates; residues 1-24 are not expressly called a signal peptide; also called P815.B7H6; P815.B7-H6
T1 sequence: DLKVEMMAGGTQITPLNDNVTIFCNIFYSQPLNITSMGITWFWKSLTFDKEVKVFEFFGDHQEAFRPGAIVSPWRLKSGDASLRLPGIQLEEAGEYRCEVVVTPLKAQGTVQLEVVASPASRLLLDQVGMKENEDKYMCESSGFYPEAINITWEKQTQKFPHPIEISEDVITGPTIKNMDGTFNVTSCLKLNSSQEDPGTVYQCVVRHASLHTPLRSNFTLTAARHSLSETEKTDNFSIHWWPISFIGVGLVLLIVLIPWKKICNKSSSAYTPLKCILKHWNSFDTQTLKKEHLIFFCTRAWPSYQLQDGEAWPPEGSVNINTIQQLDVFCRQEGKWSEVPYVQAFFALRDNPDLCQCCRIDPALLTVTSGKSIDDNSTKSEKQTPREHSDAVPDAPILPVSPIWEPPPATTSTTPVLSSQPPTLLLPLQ
Assay: FACS on P815.B7-H6 cells

B1: NKp30Fc, soluble form of human NKp30 consisting of the extracellular domain of human NKp30 with a C-terminal Fc fusion (Fc fusion, UniProt O14931 19-135, looked up)
chain: LWVSQPPEIRTLEGSSAFLPCSFNASQGRLAIGSVTWFRDEVVPGKEVRNGTPEFRGRLAPLASSRFLHDHQAELHIRDVRGHDASIYVCRVEVLGLGVGTGNGTRLVVEKEHPQLG
notes: extracellular domain; not shown: C-terminal Fc
  binding result: binds
